The target in this assay is Sso7d-IN with an 11 glycine linker (Sulfolobus solfataricus chromosomal protein Sso7d fused to the N-terminus of HIV-1 integrase) (Sulfolobus solfataricus | HIV-1). The assay can be described thus: SEC; Superdex 200 PC 3.2/30, 20 mM HEPES pH 7.5, 20% glycerol, 5 mM DTT, 500 mM NaCl; free protein peak of a scaled-up intasome assembly mixture (with U5-25 DNA, CaCl2, 4 µM ZnCl2) after addition of 500 mM NaCl; position relative to protein standards. (In gel filtration, larger molecules generally elute earlier.)

As a reminder, the stoichiometry N is the number of molecules, sites or subunits per partner or assembly. “Sso7d-IN with an 11 glycine linker (Sulfolobus solfataricus chromosomal protein Sso7d fused to the N-terminus of HIV-1 integrase) (enzyme)”: the stoichiometry N came to 4.

These data come from PMC4132020.
